Experimental data from patent US20220293215A1 (BROAD INSTITUTE, published 2022).

B1: Listeria peptide KEKVVATPVSNVSTSS (lmo0186) (peptide)
peptide: KEKVVATPVSNVSTSS
B2: Listeria peptide VDDTTVKFTLPTVAPAFE (lmo0135) (peptide)
peptide: VDDTTVKFTLPTVAPAFE
B3: Listeria peptide DFRYVFDTAKATAASSYPGSDETPP (lmo2185) (peptide)
peptide: DFRYVFDTAKATAASSYPGSDETPP
B4: Listeria peptide APGQETQHYYGLPVADSAIDR (lmo2558 (ami)) (peptide)
peptide: APGQETQHYYGLPVADSAIDR
notes: also called lmo2558_533-553
B5: Listeria peptide RYVFDTAKATAASSYPGSDETPPVVNPGETNPP (lmo2185) (peptide)
peptide: RYVFDTAKATAASSYPGSDETPPVVNPGETNPP
B6: Listeria peptide GGINQAYTGSTALSDG (lmo2360) (peptide)
peptide: GGINQAYTGSTALSDG
B7: Listeria peptide ADFRYVFDTAKATAASSYPG (lmo2185) (peptide)
peptide: ADFRYVFDTAKATAASSYPG
notes: also called lmo2185_293-312
B8: Listeria peptide YPGSDETPPVVNPGE (lmo2185) (peptide)
peptide: YPGSDETPPVVNPGE
B9: Listeria peptide GTKEKVVATPVSNVST (lmo0186) (peptide)
peptide: GTKEKVVATPVSNVST
B10: Listeria peptide ADFRYVFDTAKATAASSYPGSDETPP (lmo2185) (peptide)
peptide: ADFRYVFDTAKATAASSYPGSDETPP
B11: Listeria peptide RYVFDTAKATAASSYPGSDETPP (lmo2185) (peptide)
peptide: RYVFDTAKATAASSYPGSDETPP
B12: Listeria peptide DDTTVKFTLPTVAPAFEN (lmo0135) (peptide)
peptide: DDTTVKFTLPTVAPAFEN
B13: Listeria peptide IAVTAFAAPTIASA (lmo0582 (lap)) (peptide)
peptide: IAVTAFAAPTIASA
notes: also called lmo0582b_12-25
B14: Listeria peptide SSYPGSDETPPVVNPGETNPP (lmo2185) (peptide)
peptide: SSYPGSDETPPVVNPGETNPP
B15: Listeria peptide DGLTWHDGKPLTADDV (lmo0135) (peptide)
peptide: DGLTWHDGKPLTADDV
B16: Listeria peptide VDDTTVKFTLPTVAPAFENT (lmo0135) (peptide)
peptide: VDDTTVKFTLPTVAPAFENT
notes: also called lmo0135_150-169
B17: Listeria peptide TKEKVVATPVSNVSTSS (lmo0186) (peptide)
peptide: TKEKVVATPVSNVSTSS
B18: Listeria peptide DDTTVKFTLPTVAPAFE (lmo0135) (peptide)
peptide: DDTTVKFTLPTVAPAFE
B19: Listeria peptide STVVVEAGDTLWGIAQSKGTT (lmo0582 (lap)) (peptide)
peptide: STVVVEAGDTLWGIAQSKGTT
notes: also called lmo0582a_26-46
B20: Listeria peptide DDTTVKFTLPTVAPAFENT (lmo0135) (peptide)
peptide: DDTTVKFTLPTVAPAFENT
B21: Listeria peptide GINQAYTGSTALSDG (lmo2360) (peptide)
peptide: GINQAYTGSTALSDG
B22: Listeria peptide TTVKFTLPTVAPAFENT (lmo0135) (peptide)
peptide: TTVKFTLPTVAPAFENT
B23: Listeria peptide GGINQAYTGSTALSDGLN (lmo2360) (peptide)
peptide: GGINQAYTGSTALSDGLN
notes: also called lmo2360_289-306
B24: Listeria peptide VETKADIDALSLLSDKIFVTNQT (lmo1451 (ispH)) (peptide)
peptide: VETKADIDALSLLSDKIFVTNQT
B25: Listeria peptide AVDDTTVKFTLPTVAPAFENTIK (lmo0135) (peptide)
peptide: AVDDTTVKFTLPTVAPAFENTIK
B26: Listeria peptide AVDDTTVKFTLPTVAPAFENT (lmo0135) (peptide)
peptide: AVDDTTVKFTLPTVAPAFENT
B27: Listeria peptide GTKEKVVATPVSNVSTSSA (lmo0186) (peptide)
peptide: GTKEKVVATPVSNVSTSSA
notes: also called lmo0186_285-303
B28: Listeria peptide EAKELVDNAPKALKEGIA (lmo0251 (rplL)) (peptide)
peptide: EAKELVDNAPKALKEGIA
B29: Listeria peptide YVFDTAKATAASSYPGSDETPP (lmo2185) (peptide)
peptide: YVFDTAKATAASSYPGSDETPP
B30: Listeria peptide YPGSDETPPVVNPGETN (lmo2185) (peptide)
peptide: YPGSDETPPVVNPGETN

What follows are binders tested against T1, I-A^b (MHCII) of murine bone marrow-derived dendritic cells from C57BL/6J mice (mouse, UniProt P14434 24-256; P14483 28-265) (assay: MHCII peptidomics: Y3P IP of peptide-MHCII from BMDCs exposed to live Listeria, iTRAQ LC-MS/MS).
T1 construct: whole, on cells; also called H2-IA
T1 sequence (MHC II alpha, looked up): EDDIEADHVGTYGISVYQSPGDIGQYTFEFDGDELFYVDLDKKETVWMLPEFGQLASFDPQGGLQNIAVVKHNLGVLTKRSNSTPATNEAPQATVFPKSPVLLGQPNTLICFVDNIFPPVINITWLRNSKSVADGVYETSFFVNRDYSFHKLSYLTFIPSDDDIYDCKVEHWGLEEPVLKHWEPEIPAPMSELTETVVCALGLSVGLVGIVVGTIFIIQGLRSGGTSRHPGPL
T1 sequence (MHC II beta, looked up): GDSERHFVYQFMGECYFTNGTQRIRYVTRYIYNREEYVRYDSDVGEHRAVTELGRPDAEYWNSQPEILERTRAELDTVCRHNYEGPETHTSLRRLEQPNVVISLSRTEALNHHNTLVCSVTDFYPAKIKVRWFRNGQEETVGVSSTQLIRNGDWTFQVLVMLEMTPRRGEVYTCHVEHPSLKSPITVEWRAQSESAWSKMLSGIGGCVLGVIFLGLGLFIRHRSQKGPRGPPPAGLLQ

Which logFC does the source give for B1 here?
The logFC was -0.21 log2 fold change, Listeria 6 hr versus 10 min.

How did the logFC turn out when B2 was run?
The logFC was 0.455 log2 fold change, Listeria 6 hr versus 10 min.

For B3, which logFC is on record?
Its logFC is 0.678 log2 fold change, Listeria 6 hr versus 10 min.

With B4 as the binder, how does the logFC read?
Its logFC is 0.856 log2 fold change, Listeria 6 hr versus 10 min.

With B5 as the binder, how does the logFC read?
Its logFC is 0.634 log2 fold change, Listeria 6 hr versus 10 min.

Which logFC does the source give for B6 here?
Its logFC is 0.239 log2 fold change, Listeria 6 hr versus 10 min.

Which logFC does the source give for B7 here?
Its logFC is 1.57 log2 fold change, Listeria 6 hr versus 10 min.

For B8, which logFC is on record?
The logFC was 0.785 log2 fold change, Listeria 6 hr versus 10 min.

With B9 as the binder, how does the logFC read?
Its logFC is 0.0371 log2 fold change, Listeria 6 hr versus 10 min.

B10 was tested. Which logFC did it give?
Its logFC is 1.56 log2 fold change, Listeria 6 hr versus 10 min.

How did the logFC turn out when B11 was run?
The logFC was 0.271 log2 fold change, Listeria 6 hr versus 10 min.

B12 was tested. Which logFC did it give?
Its logFC is 0.26 log2 fold change, Listeria 6 hr versus 10 min.

For B13, which logFC is on record?
The logFC was 0.181 log2 fold change, Listeria 6 hr versus 10 min.

B14 was tested. Which logFC did it give?
The logFC was 0.292 log2 fold change, Listeria 6 hr versus 10 min.

Which logFC does the source give for B15 here?
The logFC was 1.02 log2 fold change, Listeria 6 hr versus 10 min.

With B16 as the binder, how does the logFC read?
Its logFC is 0.844 log2 fold change, Listeria 6 hr versus 10 min.

For B17, which logFC is on record?
Its logFC is -0.286 log2 fold change, Listeria 6 hr versus 10 min.

Which logFC does the source give for B18 here?
The logFC was 0.387 log2 fold change, Listeria 6 hr versus 10 min.

Which logFC does the source give for B19 here?
Its logFC is 0.489 log2 fold change, Listeria 6 hr versus 10 min.

B20 was tested. Which logFC did it give?
Its logFC is 0.786 log2 fold change, Listeria 6 hr versus 10 min.

Which logFC does the source give for B21 here?
The logFC was 0.261 log2 fold change, Listeria 6 hr versus 10 min.

Which logFC does the source give for B22 here?
The logFC was 0.0598 log2 fold change, Listeria 6 hr versus 10 min.

For B23, which logFC is on record?
Its logFC is 0.555 log2 fold change, Listeria 6 hr versus 10 min.

For B24, which logFC is on record?
Its logFC is 1.06 log2 fold change, Listeria 6 hr versus 10 min.

How did the logFC turn out when B25 was run?
The logFC was 0.464 log2 fold change, Listeria 6 hr versus 10 min.

With B26 as the binder, how does the logFC read?
Its logFC is 0.871 log2 fold change, Listeria 6 hr versus 10 min.

Which logFC does the source give for B27 here?
The logFC was 0.489 log2 fold change, Listeria 6 hr versus 10 min.

For B28, which logFC is on record?
Its logFC is 0.93 log2 fold change, Listeria 6 hr versus 10 min.

B29 was tested. Which logFC did it give?
The logFC was 0.611 log2 fold change, Listeria 6 hr versus 10 min.

B30 was tested. Which logFC did it give?
Its logFC is 1.86 log2 fold change, Listeria 6 hr versus 10 min.
